PMC11667166
Where two headings read alike, the source gives them in different places.

| Substance | localisation_or_trafficking (N-glycosylation at N126) | localisation_or_trafficking (N-glycosylation at N195) | localisation_or_trafficking (N-glycosylation at N213) |
| --- | --- | --- | --- |
| CD320: N126Q | no change |  |  |
| CD320: N126Q/N195Q/N213Q (QQQ) | no change | no change | no change |
| CD320: N195Q |  | no change |  |
| CD320: N213Q |  |  | no change |
